{"source": "patent US8372950B2", "about": "“IgG binding peptide” (Kagoshima University, priority 2006, dated 2013)", "assay": "molecular sieve chromatography of acid-denatured MRA", "type": "physicochemical", "conditions": "acid treated pH 2.7, 30° C., 10 minutes, purified on IMGpep-4K6R column, FIG. 15C", "procedure": "First, 20 μl of 1 M glycine-HCl (pH 2.7) was added to 200 μl of humanized anti-human IL-6 receptor IgG antibody (MRA) (2000 μg/ml, PBS solution). The solution was incubated for 10 minutes at 30° C. and then 30 μl of 1 M Tris-HCl (pH 8.7) was added thereto for neutralization to prepare an acid-treated antibody sample. Also, a biotinylated IMGPep-4K6R peptide-immobilized column was prepared in a manner similar to that in Example 10. An acid-treated antibody sample was injected at a flow rate of 0.4 ml/min to the column and then gradient elution was carried out using from 20 mM phosphate buffered saline (PBS, pH 7.0) containing 0.1M NaCl to 0.1M glycine-HCl (pH 2.5) containing 0.1M NaCl. The thus eluted IgG was a purified acid-denatured humanized anti-human IL-6 receptor IgG antibody (MRA).\nSubsequently, the purified acid-denatured MRA was subjected to molecular sieve chromatography using a HiLoad Sperdex 200 16/60 column (GE Healthcare). Similarly, untreated MRA, an acid-treated antibody sample, and a flow-through fraction (undenatured MRA) obtained via injection of an acid-treated antibody sample to a biotinylated IMGPep-4K6R peptide-immobilized column, were also separately subjected to molecular sieve chromatography using a HiLoad Sperdex 200 16/60 column (GE Healthcare). […]"}
{"substance": "MRA: Humanized anti-human IL-6 receptor monoclonal IgG antibody, Chugai Pharmaceutical", "values": [{"measurement": "monomers in purified acid-denatured MRA", "result": "approximately 65%"}]}
